Measurements: the Immune Epitope Database (IEDB)

Tests used:
HLA-B*40:01 = assay: IEDB peptide-MHC binding, purified MHC/competitive/fluorescence; filed as Kd, often an IC50 or EC50 that approximates it; ≥ and ≤ were set here for values at or beyond the usual limits of such assays
HLA-B*15:01 [1] = assay: IEDB peptide-MHC binding, purified MHC/direct/fluorescence; filed as Kd, often an IC50 or EC50 that approximates it; ≥ and ≤ were set here for values at or beyond the usual limits of such assays; conditions: source organism: Mycobacterium tuberculosis variant bovis
HLA-B*35:01 = assay: IEDB peptide-MHC binding, purified MHC/competitive/fluorescence; filed as Kd, often an IC50 or EC50 that approximates it; ≥ and ≤ were set here for values at or beyond the usual limits of such assays
HLA-B*51:01 = assay: as above
HLA-B*08:01 [2] = assay: as above; conditions: source organism: Shigella flexneri 5 str. 8401
HLA-B*39:01 = assay: as above
HLA-B*15:01 [3] = assay: as above
HLA-B*08:03 = assay: IEDB peptide-MHC binding, purified MHC/direct/fluorescence; filed as Kd, often an IC50 or EC50 that approximates it; ≥ and ≤ were set here for values at or beyond the usual limits of such assays; conditions: source organism: Listeria monocytogenes serotype 4b str. H7858
HLA-B*08:01 [4] = assay: as above; conditions: source organism: Listeria monocytogenes serotype 4b str. H7858
HLA-B*08:02 = assay: as above; conditions: source organism: Listeria monocytogenes serotype 4b str. H7858
HLA-A*02:11 [5] = assay: IEDB peptide-MHC binding, purified MHC/competitive/fluorescence; filed as Kd, often an IC50 or EC50 that approximates it; ≥ and ≤ were set here for values at or beyond the usual limits of such assays; conditions: source organism: Homo sapiens
HLA-B*15:17 = assay: as above
HLA-A*01:01 = assay: as above
HLA-A*26:01 = assay: as above
HLA-A*02:16 [6] = assay: as above; conditions: source organism: Homo sapiens
HLA-A*29:02 [7] = assay: as above; conditions: source organism: Homo sapiens
HLA-A*02:01 = assay: as above
HLA-B*27:03 = assay: as above
HLA-A*03:01 [8] = assay: as above; conditions: source organism: Homo sapiens
HLA-B*46:01 = assay: as above
HLA-A*68:02 [9] = assay: as above; conditions: source organism: Homo sapiens
HLA-A*02:19 [10] = assay: as above; conditions: source organism: Homo sapiens
HLA-A*02:03 [11] = assay: as above; conditions: source organism: Homo sapiens
HLA-A*24:03 [12] = assay: as above; conditions: source organism: Homo sapiens
HLA-A*02:12 [13] = assay: as above; conditions: source organism: Homo sapiens
HLA-A*69:01 = assay: as above
HLA-A*02:11 [14] = assay: IEDB peptide-MHC binding, purified MHC/direct/fluorescence; filed as Kd, often an IC50 or EC50 that approximates it; ≥ and ≤ were set here for values at or beyond the usual limits of such assays; conditions: source organism: Orthohantavirus tulaense
HLA-A*23:01 = assay: as above; conditions: source organism: Orthohantavirus tulaense
HLA-A*02:16 [15] = assay: as above; conditions: source organism: Orthohantavirus tulaense
HLA-A*29:02 [16] = assay: as above; conditions: source organism: Orthohantavirus tulaense
HLA-A*03:01 [17] = assay: as above; conditions: source organism: Orthohantavirus tulaense
HLA-A*68:02 [18] = assay: as above; conditions: source organism: Orthohantavirus tulaense
HLA-A*02:19 [19] = assay: as above; conditions: source organism: Orthohantavirus tulaense
HLA-A*02:03 [20] = assay: as above; conditions: source organism: Orthohantavirus tulaense
HLA-A*24:03 [21] = assay: as above; conditions: source organism: Orthohantavirus tulaense
HLA-A*02:12 [22] = assay: as above; conditions: source organism: Orthohantavirus tulaense
HLA-B*18:01 = assay: IEDB peptide-MHC binding, purified MHC/competitive/fluorescence; filed as Kd, often an IC50 or EC50 that approximates it; ≥ and ≤ were set here for values at or beyond the usual limits of such assays; conditions: source organism: Orthohantavirus tulaense
HLA-B*57:01 = assay: as above; conditions: source organism: Orthohantavirus tulaense
[23] = source organism: Shigella flexneri 5 str. 8401
[24] = source organism: Escherichia coli
[25] = source organism: Orthohantavirus tulaense

EEISSIISL
Kd (HLA-B*40:01; source organism: Bacillus anthracis str. A2012): 0.0023 µM

ELNITSATY
Kd (HLA-B*15:01 [1]): 0.459 µM
Kd (HLA-B*35:01; source organism: Mycobacterium tuberculosis variant bovis): 0.0182 µM

LPRRLQLLF
Kd (HLA-B*35:01; [23]): 0.0029 µM
Kd (HLA-B*51:01; [23]): 2.64 µM
Kd (HLA-B*08:01 [2]): 4 µM

LQEEMAETL
Kd (HLA-B*39:01; [24]): 0.108 µM
Kd (HLA-B*15:01 [3]; [24]): ≥ 20 µM
Kd (HLA-B*40:01; [24]): 0.866 µM

QATAQAAAY
Kd (HLA-B*15:01 [1]): 6.05 µM
Kd (HLA-B*35:01; source organism: Mycobacterium tuberculosis C): 0.0145 µM

QMKRRILSF
Kd (HLA-B*08:03): 0.095 µM
Kd (HLA-B*08:01 [4]): 0.009 µM
Kd (HLA-B*08:02): 0.057 µM

REWSGLNYL
Kd (HLA-B*40:01; source organism: Salmonella enterica subsp. enterica serovar Typhi): 0.0033 µM

SSDLRSWTF
Kd (HLA-A*02:11 [5]): ≥ 20 µM
Kd (HLA-B*15:17; source organism: Homo sapiens): ≥ 20 µM
Kd (HLA-A*01:01; source organism: Homo sapiens): 0.538 µM
Kd (HLA-A*26:01; source organism: Homo sapiens): ≥ 20 µM
Kd (HLA-B*51:01; source organism: Homo sapiens): ≥ 20 µM
Kd (HLA-A*02:16 [6]): ≥ 20 µM
Kd (HLA-A*29:02 [7]): ≥ 20 µM
Kd (HLA-A*02:01; source organism: Homo sapiens): ≥ 20 µM
Kd (HLA-B*27:03; source organism: Homo sapiens): ≥ 20 µM
Kd (HLA-B*39:01; source organism: Homo sapiens): ≥ 20 µM
Kd (HLA-A*03:01 [8]): ≥ 20 µM
Kd (HLA-B*46:01; source organism: Homo sapiens): ≥ 20 µM
Kd (HLA-A*68:02 [9]): ≥ 20 µM
Kd (HLA-A*02:19 [10]): ≥ 20 µM
Kd (HLA-A*02:03 [11]): ≥ 20 µM
Kd (HLA-B*15:01 [3]; source organism: Homo sapiens): ≥ 20 µM
Kd (HLA-A*24:03 [12]): ≥ 20 µM
Kd (HLA-A*02:12 [13]): ≥ 20 µM
Kd (HLA-A*69:01; source organism: Homo sapiens): ≥ 20 µM

VVDALRNIY
Kd (HLA-A*02:11 [14]): ≥ 20 µM
Kd (HLA-A*23:01): ≥ 20 µM
Kd (HLA-A*02:16 [15]): ≥ 20 µM
Kd (HLA-A*29:02 [16]): ≥ 20 µM
Kd (HLA-A*03:01 [17]): ≥ 20 µM
Kd (HLA-A*68:02 [18]): ≥ 20 µM
Kd (HLA-A*02:19 [19]): ≥ 20 µM
Kd (HLA-A*02:03 [20]): ≥ 20 µM
Kd (HLA-A*24:03 [21]): ≥ 20 µM
Kd (HLA-A*02:12 [22]): ≥ 20 µM
Kd (HLA-B*15:17; [25]): ≥ 20 µM
Kd (HLA-A*01:01; [25]): 0.0063 µM
Kd (HLA-A*26:01; [25]): ≥ 20 µM
Kd (HLA-B*51:01; [25]): ≥ 20 µM
Kd (HLA-A*02:01; [25]): ≥ 20 µM
Kd (HLA-B*27:03; [25]): ≥ 20 µM
Kd (HLA-B*18:01): ≥ 20 µM
Kd (HLA-B*39:01; [25]): ≥ 20 µM
Kd (HLA-B*46:01; [25]): ≥ 20 µM
Kd (HLA-B*57:01): ≥ 20 µM
Kd (HLA-A*69:01; [25]): ≥ 20 µM
